Assay results: patent US20260365734 (published 2026)
Like-named read-outs stand apart in the source and are kept apart here. Each block holds one binder with its values, some of them ahead of it.

Assays:
[1] = molecular target: T1, human PD-L1 (cell surface) (human, UniProt Q9NZQ7); experiment: FACS, NCI-H441 cells
[2] = molecular target: T1, human PD-L1 (cell surface); experiment: FACS, T24 cells
cynomolgus PD-L1 = cynomolgus PD-L1 (cynomolgus); experiment: BLI
human PD-L1 ECD [3] = molecular target: T2, human PD-L1 ECD (human, UniProt Q9NZQ7); experiment: BLI
[4] = molecular target: T1, human PD-L1 (cell surface); experiment: FACS, CHO-h-PD-L1 cells
[5] = molecular target: T1, human PD-L1 (cell surface); experiment: FACS
[6] = molecular target: T1, human PD-L1 (cell surface); experiment: FACS, T24 cells; remark: listed apart in the source
human VEGFA = molecular target: T3, human VEGFA (human, UniProt P15692); experiment: BLI
T3 chain: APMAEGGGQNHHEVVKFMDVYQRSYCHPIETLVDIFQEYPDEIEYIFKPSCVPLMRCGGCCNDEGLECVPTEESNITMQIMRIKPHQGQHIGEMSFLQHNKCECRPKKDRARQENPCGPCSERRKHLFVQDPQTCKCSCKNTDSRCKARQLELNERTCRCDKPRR

[7] = molecular target: T1, human PD-L1 (cell surface); experiment: FACS, T24 cells; remark: listed apart in the source
[8] = molecular target: T1, human PD-L1 (cell surface); experiment: FACS; remark: listed apart in the source
[9] = molecular target: mouse PD-L1 (cell surface) (mouse, UniProt Q9EP73); experiment: FACS, Hepa1-6 cells
human PD-L1 ECD [10] = molecular target: T2, human PD-L1 ECD; experiment: BLI; remark: listed apart in the source
[11] = molecular target: T1, human PD-L1 (cell surface); experiment: FACS; remark: listed apart in the source

Sequence of cynomolgus PD-L1 (cynomolgus) (chain, as listed by the source): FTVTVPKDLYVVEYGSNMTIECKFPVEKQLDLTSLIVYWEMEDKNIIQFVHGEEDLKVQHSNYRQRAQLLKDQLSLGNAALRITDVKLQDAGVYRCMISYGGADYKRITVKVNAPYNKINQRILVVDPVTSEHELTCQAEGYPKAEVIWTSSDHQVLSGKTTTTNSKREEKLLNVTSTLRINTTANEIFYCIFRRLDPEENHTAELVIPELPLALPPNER
T2 sequence (Q9NZQ7 19-238): as the sequence (chain, as listed by the source) above, with T33A, S34A, N62S, Q68R, R82Q, L173F, A185T, I192T, L215H counted along it
T1 sequence (Q9NZQ7 19-238): as the sequence (chain, as listed by the source) above, with T33A, S34A, N62S, Q68R, R82Q, L173F, A185T, I192T, L215H counted along it
Sequence of mouse PD-L1 (cell surface) (Q9EP73 19-238): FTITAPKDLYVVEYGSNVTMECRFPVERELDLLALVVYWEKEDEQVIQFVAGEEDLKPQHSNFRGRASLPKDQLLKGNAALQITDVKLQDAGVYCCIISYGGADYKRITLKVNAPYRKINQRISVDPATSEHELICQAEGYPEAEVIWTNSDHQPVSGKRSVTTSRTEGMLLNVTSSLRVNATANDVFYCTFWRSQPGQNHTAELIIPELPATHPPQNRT

B2: R2-4D2 (antibody, V domains shown)
VH: QVQLVESGGGLVQAGGSLRLSCAASGFSASDVVMAWYRQAPGKQREFVANLGASSTTRYADSVKGRFTISRDDAKNTVSLQMNSLKSEDTAVYYCNALVWNGSSYNNWGQGTQVTVSS
- EC50 [5]: 202 pM
- EC50 [6]: 41 pM

B5: 1F4-hv7-NT (antibody, V domains shown)
VH: QVQLVESGGGLVKPGGSLRLSCAASGFSASDVVMAWYRQAPGKQREFVANIAASSTTRYADSVKGRFTISRDNAKNSLYLQMNSLRAEDTAVYYCNALVWTGSSYNNWGQGTQVTVSS
- EC50 [1]: 56 pM
- EC50 [2]: 47 pM
- Kd (cynomolgus PD-L1): 3870 pM
- Kd (human PD-L1 ECD [3]): 6390 pM
- EC50 [4]: 130 pM

B6: R2-4E2 (antibody, V domains shown)
VH: EVQLVESGGGSVQDGGSLTLSCAASGFSAGDVVMAWYRQAPGKQREFVANIAASSTTRYTDSVKGRFTISRDNAKNTVYLQMNSLKSEDTAVYYCNALVWNGSSYNNWGQGTQVTVSS
- EC50 [5]: 148 pM
- EC50 [6]: 50 pM

B7: 1C8 (antibody, V domains shown)
VH: QVQLVESGGGVVQPGRSLRLSCAASGRSFSRYAMAWVRQAPGKERESVAVIGSGGGRTYYADSVKGRFTISRDNSKNTLYLQMNSLRAEDTAVYYCAARIYRVVGSGTYPAGYDYWGQGTLVTVSS
- Kd (human VEGFA): 2610 pM

B10: R3-5F8 (antibody, V domains shown)
VH: EVQLVESGGGLVQPGGSLRLSCVASGFDFSDTHMGWYRQAPGKERELVAIITSGGSTDYVDSVKGRFTISRDNAKNTVYLQMNSLKFEDTAVYYCNARRTTIYWGQGTQVTVSS
- EC50 [5]: 530 pM
- Kd (human PD-L1 ECD [10]): 54 pM
- EC50 [6]: 503 pM

B11: R2-5C12 (antibody, V domains shown)
VH: QVQLVESGGGLVQAGGSLRLSCAASGFSASDVVMAWYRQAPGKQREFVANIAARGSTDYANSVKGRFTISRDNAKNTVYLQMNSLKSDDTAVYYCNALVWNGSSYNNWGQGTQVTVSS
- EC50 [5]: 240 pM
- Kd (human PD-L1 ECD [10]): 5010 pM
- EC50 [6]: 78 pM
- EC50 [11]: 220 pM

B12: R2-1F4 (antibody, V domains shown)
VH: QVQLVESGGGLVQAGGSLRLSCAASGFSASDVVMAWYRQAPGKQREFVANIAASSTTRYADSVKGRFTISRDDAKNTVSLQMNSLKSEDTAVYYCNALVWNGSSYNNWGQGTQVTVSS
- EC50 [5]: 220 pM
- Kd (human PD-L1 ECD [10]): 2040 pM
- EC50 [6]: 59 pM

B13: R3-3H1 (antibody, V domains shown)
VH: QLQLVESGGGVVQPGGSLRLSCAASGIDFSDTHMGWYRQAPGKQRELVAIITSGGSTDYVDSVKGRFTISRDNAKNTVYLQMNSLKFEDTAVYYCNARRSTIYWGQGTQVTVSS
- EC50 [5]: 815 pM
- Kd (human PD-L1 ECD [10]): 1200 pM

B16: 1G1 (antibody, V domains shown)
VH: QVQLVESGGGVVQPGRSLRLSCAASGLSFSYGTMAWVRQAPGKELELVAALSAGGTITYYADSVKGRFTISRDNSKNTLYLQMNSLRAEDTAVYYCAALGGYSGGSKYPYYDYWGQGTLVTVSS
- Kd (human VEGFA): 14400 pM

Other lines, results leading:

- EC50 [1]: 65 pM
- EC50 [2]: 43 pM
- Kd (cynomolgus PD-L1): 3760 pM
- Kd (human PD-L1 ECD [3]): 4540 pM
- EC50 [4]: 143 pM
B1: 4D2-hv1-NT (antibody, V domains shown)
VH: QVQLVESGGGLVKPGGSLRLSCAASGFSASDVVMAWYRQAPGKQREFVANLGASSTTRYADSVKGRFTISRDNAKNSLYLQMNSLRAEDTAVYYCNALVWTGSSYNNWGQGTQVTVSS

- EC50 [1]: 39 pM
- EC50 [2]: 48 pM
- Kd (cynomolgus PD-L1): 3400 pM
- Kd (human PD-L1 ECD [3]): 4640 pM
- EC50 [4]: 110 pM
B3: 4E2-hv1-NT (antibody, V domains shown)
VH: EVQLVESGGGLVKPGGSLRLSCAASGFSAGDVVMAWYRQAPGKQREFVANIAASSTTRYADSVKGRFTISRDNAKNSLYLQMNSLRAEDTAVYYCNALVWTGSSYNNWGQGTQVTVSS

- EC50 [1]: 54 pM
- EC50 [2]: 47 pM
- Kd (cynomolgus PD-L1): 3240 pM
- Kd (human PD-L1 ECD [3]): 4750 pM
- EC50 [4]: 110 pM
B4: 4E2-hv2-NT (antibody, V domains shown)
VH: EVQLVESGGGLVKPGGSLRLSCAASGFSAGDVVMAWYRQAPGKQREFVSNIAASSTTRYADSVKGRFTISRDNAKNSLYLQMNSLRAEDTAVYYCNALVWTGSSYNNWGQGTQVTVSS

- binding result [7]: no binding
B8: Avastin (antibody, V domains shown)
VH: EVQLVESGGGLVQPGGSLRLSCAASGYTFTNYGMNWVRQAPGKGLEWVGWINTYTGEPTYAADFKRRFTFSLDTSKSTAYLQMNSLRAEDTAVYYCAKYPHYYGSSHWYFDVWGQGTLVTVSS
VL: DIQMTQSPSSLSASVGDRVTITCSASQDISNYLNWYQQKPGKAPKVLIYFTSSLHSGVPSRFSGSGSGTDFTLTISSLQPEDFATYYCQQYSTVPWTFGQGTKVEIK

- EC50 [8]: 690 pM
- binding result [9]: no binding
B9: 5F8-hv8 (antibody, V domains shown)
VH: EVQLVESGGGLVQPGGSLRLSCAASGFDFSDTHMSWVRQAPGKERELVAIITSGGSTDYVDSVKGRFTISRDNSKNTLYLQMNSLRAEDTAVYYCNARRTTIYWGQGTQVTVSS

- Kd (human VEGFA): 2080 pM
B14: 7H3 (antibody, V domains shown)
VH: QVQLVESGGGVVQPGRSLRLSCAASGFTFGPYAMHWVRQAPGKERELVAAIWPSGSITYYADSVKGRFTISRDNSKNTLYLQMNSLRAEDTAVYYCAFGSPTGSITYWGQGTLVTVSS

- Kd (human VEGFA): 2820 pM
B15: 4B11 (antibody, V domains shown)
VH: QVQLVESGGGVVQPGRSLRLSCAASGLSFSQYEMHWVRQAPGKEREFVAAISSSGISTYYADSVKGRFTISRDNSKNTLYLQMNSLRAEDTAVYYCAAELVDYHRWGYDYWGQGTLVTVSS
